Source: publication PMC2752054
Where two headings read alike, the source gives them in different places.

Assays:
[1] = biological target: T1, N-HisPurβ (Purine-rich element binding protein B) (UniProt O35295 1-324); experiment: competition
T1 sequence: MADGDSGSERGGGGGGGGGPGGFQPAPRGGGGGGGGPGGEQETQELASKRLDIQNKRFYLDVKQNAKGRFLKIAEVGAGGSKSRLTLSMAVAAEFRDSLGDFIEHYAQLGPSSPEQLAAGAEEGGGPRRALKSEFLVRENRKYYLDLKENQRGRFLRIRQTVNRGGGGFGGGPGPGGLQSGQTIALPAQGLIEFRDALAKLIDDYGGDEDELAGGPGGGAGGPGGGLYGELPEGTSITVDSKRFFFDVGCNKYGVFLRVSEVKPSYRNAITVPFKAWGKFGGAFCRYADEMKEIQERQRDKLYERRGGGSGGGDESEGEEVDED

[2] = biological target: T1, N-HisPurβ (Purine-rich element binding …); experiment: competition; remark: listed apart in the source
[3] = biological target: T1, N-HisPurβ (Purine-rich element binding …); experiment: EMSA
[4] = biological target: T1, N-HisPurβ (Purine-rich element binding …); experiment: competition; remark: listed apart in the source
[5] = biological target: T1, N-HisPurβ (Purine-rich element binding …); experiment: competition; remark: listed apart in the source
[6] = biological target: T1, N-HisPurβ (Purine-rich element binding …); experiment: competition; remark: listed apart in the source
[7] = biological target: T1, N-HisPurβ (Purine-rich element binding …); experiment: competition; remark: listed apart in the source

Question: TTTTTTTGAACAGAGGAATGCAGTTTTTTTTA (ssDNA) [PE32-F-35T7] was tested. Which binding signal [1] did it give?
Answer: Its binding signal is > 50 fold IC50 increase vs PE32-F.

Question: Does TTTTTTTGAACAGTTTTTTTCAGTTTTTTTTA (ssDNA) [PE32-F-3I5T7] bind [2]?
Answer: Result: no binding

Question: How did the Kd [3] turn out when GGGAGCAGAACAGAGGAATGCAGTGGAAGAGA (ssDNA) [PE32-F (PE32-F*, PE32-bF, PE32-F-3FLC)] was run?
Answer: The Kd was ~300 pM.

Question: What about the binding signal [4] of the same binder?
Answer: Its binding signal is 1 fold IC50 (reference).

Question: For TTTTTTTGAACAGAGGAATGCAGTGGAAGAGA (ssDNA) [PE32-F-5T7], which binding signal [5] is on record?
Answer: The binding signal was ~4 fold IC50 increase vs PE32-F.

Question: Does GGGAGCAGAACAGTTTTTTTCAGTGGAAGAGA (ssDNA) [PE32-F-IT7] bind [6]?
Answer: Result: binds

Question: Does GGGAGCAGAACAGAGGAATGCAGTTTTTTTTA (ssDNA) [PE32-F-3T7] bind [6]?
Answer: Result: binds

Question: Does TTTTTTTTTTTTTTTTTTTTTTTTTTTTTTTT (ssDNA) [dT32] bind [7]?
Answer: Result: no binding
